According to US20250145710A1 (INTEGRAL MOLECULAR, published 2025):

Experiments:
human CLDN9 = target: T1, human CLDN9 (human, UniProt O95484 1-217); assay: binding to cells expressing CLDN9 (FIG. 33B, FIG. 34 text)
T1 construct: whole, on cells; also called claudin 9
T1 sequence (looked up): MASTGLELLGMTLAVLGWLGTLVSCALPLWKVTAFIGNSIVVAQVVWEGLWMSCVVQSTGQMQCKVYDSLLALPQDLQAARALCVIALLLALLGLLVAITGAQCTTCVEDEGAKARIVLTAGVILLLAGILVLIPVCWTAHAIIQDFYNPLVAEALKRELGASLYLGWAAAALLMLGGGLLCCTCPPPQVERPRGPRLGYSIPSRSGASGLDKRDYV

human CLDN4 = target: T2, human CLDN4 (human, UniProt O14493 1-209); assay: binding to cells expressing CLDN4 (FIG. 34 text)
T2 construct: whole, on cells; also called claudin 4
T2 sequence (looked up): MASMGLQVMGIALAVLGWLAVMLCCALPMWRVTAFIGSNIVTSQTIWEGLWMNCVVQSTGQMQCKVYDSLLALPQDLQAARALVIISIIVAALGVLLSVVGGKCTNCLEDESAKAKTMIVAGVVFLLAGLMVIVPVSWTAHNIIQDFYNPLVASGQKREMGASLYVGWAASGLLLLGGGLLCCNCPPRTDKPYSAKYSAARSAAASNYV

human CLDN3 = target: T3, human CLDN3 (human, UniProt O15551 1-220); assay: binding to cells expressing CLDN3 (FIG. 34 text)
T3 construct: whole, on cells; also called claudin 3
T3 sequence (looked up): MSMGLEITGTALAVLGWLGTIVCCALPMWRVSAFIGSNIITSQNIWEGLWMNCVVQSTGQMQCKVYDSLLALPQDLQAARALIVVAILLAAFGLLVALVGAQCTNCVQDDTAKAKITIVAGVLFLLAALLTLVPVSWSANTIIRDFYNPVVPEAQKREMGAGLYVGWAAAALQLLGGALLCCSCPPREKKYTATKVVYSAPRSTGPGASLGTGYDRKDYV

human CLDN6 [1] = target: T4, human CLDN6 (human, UniProt P56747 1-220); assay: cell-based or functional assay
T4 sequence (looked up): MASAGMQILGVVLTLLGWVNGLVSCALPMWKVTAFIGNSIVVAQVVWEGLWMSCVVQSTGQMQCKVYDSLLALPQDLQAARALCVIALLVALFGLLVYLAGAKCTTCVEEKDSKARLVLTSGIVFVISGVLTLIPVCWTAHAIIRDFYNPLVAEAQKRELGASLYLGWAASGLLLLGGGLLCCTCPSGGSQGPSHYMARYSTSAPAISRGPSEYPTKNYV

human CLDN6 [2] = target: T4, human CLDN6; assay: flow cytometry on a CLDN negative parental cell line transfected with CLDN6, CLDN4, CLDN3 or CLDN9 (FIG. 12C)
human CLDN6 [3] = target: T4, human CLDN6; assay: flow cytometry on a CLDN negative parental cell line transfected with CLDN6, CLDN4, CLDN3 or CLDN9 (FIG. 12A)
human CLDN6 [4] = target: T4, human CLDN6; assay: flow cytometry on a CLDN negative parental cell line transfected with CLDN6, CLDN4, CLDN3 or CLDN9 (FIG. 12D)

B1: IMC-16-3 scFv-Fab IgG antibody (bispecific antibody)
heavy: EVQLLESGGGLVQPGGSLRLSCAASGFTFSSYAMNWVRQAPGKGLEWVAGISSSGRYTGYADSVKGRFTISRDNSKNTLYLQMNSLRAEDTAVYYCAKSVGSGVSWSGYVATSLDAWGQGTLVTVSSASTKGPSVFPLAPSSKSTSGGTAALGCLVKDYFPEPVTVSWNSGALTSGVHTFPAVLQSSGLYSLSSVVTVPSSSLGTQTYICNVNHKPSNTKVDKKVEPKSCDKTHTCPPCPAPEAAGGPSVFLFPPKPKDTLMISRTPEVTCVVVDVSHEDPEVKFNWYVDGVEVHNAKTKPREEQYNSTYRVVSVLTVLHQDWLNGKEYKCKVSNKALPAPIEKTISKAKGQPREPQVYTLPPSREEMTKNQVSLWCLVKGFYPSDIAVEWESNGQPENNYKTTPPVLDSDGSFFLYSKLTVDKSRWQQGNVFSCSVMHEALHNHYTQKSLSLSPGK
light: SYELTQPPSVSVSPGQTARITCSAGSGLYGWYQQKPGQAPVLVIYGTNKRPSGIPERFSGSSSGTTVTLTISGVQAEDEADYYCGSADSSTNAGIFGGGTKLTVLGQPKAAPSVTLFPPSSEELQANKATLVCLISDFYPGAVTVAWKADSSPVKAGVETTTPSKQSNNKYAASSYLSLTPEQWKSHRSYSCQVTHEGSTVEKTVAPTECS
scFv: EVQLVESGGGLVQPGGSLRLSCAASGFTFSTYAMNWVRQAPGKGLEWVGRIRSKYNNYATYYADSVKGRFTISRDDSKNTLYLQMNSLRAEDTAVYYCVRHGNFGDSYVSWFAYWGQGTLVTVSSGKPGSGKPGSGKPGSGKPGSQAVVTQEPSLTVSPGGTVTLTCGSSTGAVTTSNYANWVQQKPGKSPRGLIGGTNKRAPGVPARFSGSLLGGKAALTISGAQPEDEADYYCALWYSNHWVFGGGTKLTVLASPKSSDKTHTCPPCPAPEAAGGPSVFLFPPKPKDTLMISRTPEVTCVVVDVSHEDPEVKFNWYVDGVEVHNAKTKPREEQYNSTYRVVSVLTVLHQDWLNGKEYKCKVSNKALPAPIEKTISKAKGQPREPQVYTLPPSREEMTKNQVSLSCAVKGFYPSDIAVEWESNGQPENNYKTTPPVLDSDGSFFLVSKLTVDKSRWQQGNVFSCSVMHEALHNHYTQKSLSLSPGK
notes: also called IMC-16-3 scFv-Fab IgG bispecific antibody
Q: Does B1 bind (human CLDN9)?
A: no binding

Q: Does B1 bind (human CLDN4)?
A: no binding

Q: Does B1 bind (human CLDN3)?
A: no binding

Q: And the “cytokine activation assay (IL-6, IL-2, TNF-alpha, IL-8) in human PBMC co-cultured with K562 cells” value (human CLDN6 [1])?
A: ~10 fold more potent than RefMAB #3

Q: And the “cytotoxicity assay in OV-90 ovarian cancer cells with human PBMC, two Effector:Target ratios” value (human CLDN6 [1])?
A: ~10 fold more potent than RefMAB #3

B2: IMC-16-15 scFv-Fab IgG antibody (bispecific antibody)
heavy: EVQLLESGGGLVQPGGSLRLSCAASGFTFSSYAMNWVRQAPGKGLEWVAGISSSGRYTGYADSVKGRFTISRDNSKNTLYLQMNSLRAEDTAVYYCAKSMGSGVSWSGYVATSIDVWGQGTLVTVSSASTKGPSVFPLAPSSKSTSGGTAALGCLVKDYFPEPVTVSWNSGALTSGVHTFPAVLQSSGLYSLSSVVTVPSSSLGTQTYICNVNHKPSNTKVDKKVEPKSCDKTHTCPPCPAPEAAGGPSVFLFPPKPKDTLMISRTPEVTCVVVDVSHEDPEVKFNWYVDGVEVHNAKTKPREEQYNSTYRVVSVLTVLHQDWLNGKEYKCKVSNKALPAPIEKTISKAKGQPREPQVYTLPPSREEMTKNQVSLWCLVKGFYPSDIAVEWESNGQPENNYKTTPPVLDSDGSFFLYSKLTVDKSRWQQGNVFSCSVMHEALHNHYTQKSLSLSPGK
light: SYELTQPPSVSVSPGQTARITCSAGSGLYGWYQQKPGQAPVLVIYGTNKRPSGIPERFSGSSSGTTVTLTISGVQAEDEADYYCGSADSSTNAGIFGGGTKLTVLGQPKAAPSVTLFPPSSEELQANKATLVCLISDFYPGAVTVAWKADSSPVKAGVETTTPSKQSNNKYAASSYLSLTPEQWKSHRSYSCQVTHEGSTVEKTVAPTECS
scFv: EVQLVESGGGLVQPGGSLRLSCAASGFTFSTYAMNWVRQAPGKGLEWVGRIRSKYNNYATYYADSVKGRFTISRDDSKNTLYLQMNSLRAEDTAVYYCVRHGNFGDSYVSWFAYWGQGTLVTVSSGKPGSGKPGSGKPGSGKPGSQAVVTQEPSLTVSPGGTVTLTCGSSTGAVTTSNYANWVQQKPGKSPRGLIGGTNKRAPGVPARFSGSLLGGKAALTISGAQPEDEADYYCALWYSNHWVFGGGTKLTVLASPKSSDKTHTCPPCPAPEAAGGPSVFLFPPKPKDTLMISRTPEVTCVVVDVSHEDPEVKFNWYVDGVEVHNAKTKPREEQYNSTYRVVSVLTVLHQDWLNGKEYKCKVSNKALPAPIEKTISKAKGQPREPQVYTLPPSREEMTKNQVSLSCAVKGFYPSDIAVEWESNGQPENNYKTTPPVLDSDGSFFLVSKLTVDKSRWQQGNVFSCSVMHEALHNHYTQKSLSLSPGK
Q: Does B2 bind (human CLDN6 [2])?
A: binds

B3: IMC-2-7 tandem scFv antibody (bispecific antibody)
scFv: SYELTQPPSVSVSPGQTARITCSAGSGLYGWYQQKPGQAPVLVIYGTNKRPSGIPERFSGSSSGTTVTLTISGVQAEDEADYYCGSADSSTNAGIFGGGTKLTVLGGGGSGGGGSGGGGSEVQLLESGGGLVQPGGSLRLSCAASGFTFSSYAMNWVRQAPGKGLEWVAGISSSGRYTGYADSVKGRFTISRDNSKNTLYLQMNSLRAEDTAVYYCAKSVGSGVSWSGYVATSLDAWGQGTLVTVSSGGGGSEVQLVESGGGLVQPGGSLRLSCAASGFTFSTYAMNWVRQAPGKGLEWVGRIRSKYNNYATYYADSVKGRFTISRDDSKNTLYLQMNSLRAEDTAVYYCVRHGNFGDSYVSWFAYWGQGTLVTVSSGKPGSGKPGSGKPGSGKPGSQAVVTQEPSLTVSPGGTVTLTCGSSTGAVTTSNYANWVQQKPGKSPRGLIGGTNKRAPGVPARFSGSLLGGKAALTISGAQPEDEADYYCALWYSNHWVFGGGTKLTVL
notes: A single-chain tandem scFv (anti-CLDN6 scFv, then anti-CD3 scFv)
Q: Does B3 bind (human CLDN6 [3])?
A: binds

B4: IMC-21-1 IgG-(scFv)2 antibody (bispecific antibody)
heavy: not shown
light: SYELTQPPSVSVSPGQTARITCSAGSGLYGWYQQKPGQAPVLVIYGTNKRPSGIPERFSGSSSGTTVTLTISGVQAEDEADYYCGSADSSTNAGIFGGGTKLTVLGQPKAAPSVTLFPPSSEELQANKATLVCLISDFYPGAVTVAWKADSSPVKAGVETTTPSKQSNNKYAASSYLSLTPEQWKSHRSYSCQVTHEGSTVEKTVAPTECS
notes: also called MC-21-1 antibody
Q: Does B4 bind (human CLDN6 [4])?
A: binds
